Data on three molecules can be found in patent publication US20240092931A1 (JANUX THERAPEUTICS, published 2024).

The target of assay [1] is T1, Human TROP2-Biotin (human, UniProt P09758 27-274, biotinylated (site not stated)).
T1 construct: The text calls the captured antigens 'biotinylated peptides'
T1 sequence (looked up): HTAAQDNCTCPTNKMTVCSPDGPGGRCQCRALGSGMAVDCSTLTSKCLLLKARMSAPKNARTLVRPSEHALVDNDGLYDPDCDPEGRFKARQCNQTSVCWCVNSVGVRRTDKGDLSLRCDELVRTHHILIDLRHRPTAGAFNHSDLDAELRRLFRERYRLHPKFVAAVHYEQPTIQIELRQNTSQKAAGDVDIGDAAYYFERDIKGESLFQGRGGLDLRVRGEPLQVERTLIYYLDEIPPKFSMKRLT
In words: BLI (Octet): 10 nM TROP2-biotin loaded on sensor, Ab-3 at 6.25-50 nM, pH 7.4. Background: In BLI a coated tip is dipped into the sample, and binding shifts an interference pattern.

The target in assay [2] is T1, Human TROP2-Biotin. In words: ELISA; 1 nM Trop2-biotin immobilized (captured on neutravidin-coated plate), Ab-3 titrated, bound complex detected with a secondary antibody, OD 450 nm. A general note: An ELISA detects its analyte on a solid surface through an enzyme-linked reagent.
Source text: A secondary antibody was used to detect bound polypeptide complex.
The target of assay [3] is T1, Human TROP2-Biotin. In words: BLI (Octet): 10 nM Human TROP2-Biotin loaded on sensor, Ab at 6.25-50 nM, pH 7.4.
In assay [4] the target is T1, Human TROP2-Biotin. In words: TROP2 ELISA; TROP2-biotin captured on neutravidin-coated plate, antibody titrated, detected with a secondary antibody, OD 450 nm.
Source text: A secondary antibody was used to detect bound polypeptide complex. A secondary antibody was used to detect bound polypeptide complex.

B1: TROP2 polypeptide complex Ab-3 (bispecific antibody)
light: DIQLTQSPSSLSASVGDRVSITCKASQDVSIAVAWYQQKPGKAPKLLIYSASYRYTGVPDRFSGSGSGTDFTLTISSLQPEDFAVYYCQQHYITPLTFGAGTKVEIKRTVAAPSVFIFPPSDEQLKSGTASVVCLLNNFYPREAKVQWKVDNALQSGNSQESVTEQDSKDSTYSLSSTLTLSKADYEKHKVYACEVTHQGLSSPVTKSFNRGEC
heavy: QTVVTQEPSLTVSPGGTVTLTCRSSTGAVTTSNYANWVQQKPGQAPRGLIGGTNKRAPGTPARFSGSLLGGKAALTLSGVQPEDEAEYYCALWYSNLWVFGGGTKLTVLGGGGSGGGGSGGGGSEVQLVESGGGLVQPGGSLKLSCAASGFTFNTYAMNWVRQAPGKGLEWVARIRSKYNNYATYYADSVKDRFTISRDDSKNTAYLQMNNLKTEDTAVYYCVRHGNFGNSYVSWFAYWGQGTLVTVSSGGGGSQVQLQQSGSELKKPGASVKVSCKASGYTFTNYGMNWVKQAPGQGLKWMGWINTYTGEPTYTDDFKGRFAFSLDTSVSTAYLQISSLKADDTAVYFCARGGFGSSYWYFDVWGQGSLVTVSSASTKGPSVFPLAPSSKSTSGGTAALGCLVKDYFPEPVTVSWNSGALTSGVHTFPAVLQSSGLYSLSSVVTVPSSSLGTQTYICNVNHKPSNTKVDKKVEPKSC
notes: Anti-CD3 scFv fused to the N-terminus of the anti-TROP2 Fab heavy chain
Broadly, the Kd is the concentration at which binding is half-saturated. Broadly, the koff is the first-order rate constant of dissociation. The low end stands for a long-lived complex, the high end for a short-lived complex. Usually kon stands for the rate constant with which the complex forms. Low readings indicate slow association, high ones fast association. The term EC50 denotes the concentration at which the effect is half-maximal. Lower therefore signals higher potency in that assay. As to B1, in assay [1], the Kd was found to be 1.12 nM, the koff was found to be 0.000223 s⁻¹ and the kon was 199000 M⁻¹ s⁻¹. The EC50 in assay [2] was 0.17 nM.

B2: TROP2 TCE polypeptide complex Ab-1 (bispecific antibody)
light: B1 light
heavy: not shown
notes: as for B1
As to B2, the equilibrium dissociation constant (Kd) in assay [3] stood at 0.466 nM. The EC50 in assay [4] was 0.08 nM.

B3: Ab-2 (bispecific antibody)
light: not shown
heavy: QVQLQQSGSELKKPGASVKVSCKASGYTFTNYGMNWVKQAPGQGLKWMGWINTYTGEPTYTDDFKGRFAFSLDTSVSTAYLQISSLKADDTAVYFCARGGFGSSYWYFDVWGQGSLVTVSSASTKGPSVFPLAPSSKSTSGGTAALGCLVKDYFPEPVTVSWNSGALTSGVHTFPAVLQSSGLYSLSSVVTVPSSSLGTQTYICNVNHKPSNTKVDKKVEPKSC
notes: Anti-CD3 scFv fused to the N-terminus of the anti-TROP2 Fab light chain
With B3, the Kd in assay [3] amounted to 0.687 nM. For the same molecule, the response in assay [4] was half-maximal at 0.09 nM (EC50).
